Measurements published in the RNAGym collection of RNA variant scans (doi:10.1073/pnas.2313332121).

B1: TPR t1 (parent)
chain: GACCAAUCUGCCCUCAGAGCUCGAGAACAUCUUCGGAUGCAGAGGAGGCAGGCUUCGGUGGCGCGAUAGCGCCAACGUCCUCAACCUCCAAUGCAUCCCACCACAUGAUGAUGCCUGAAGAGCCUUGGUUUUUUG

Variants of: B1
Assay: polymerase ribozyme fitness, log enrichment relative to wild type (log ratio); higher = more active; in vitro selection for triplet polymerase activity
In short: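 Fitness compares each genotype's enrichment to that of the wild type on a logarithmic scale, averaging replicates with inverse-variance weights. The logarithm is base 2. Enrichment came from Illumina sequencing of input and output libraries after one triplicate round of in vitro selection, which included frozen incubation at −7 °C, of PCR-built, transcribed mutant libraries of each subunit of a heterodimeric triplet polymerase ribozyme. Only genotypes with ≥10 input reads and ≥1 read per output were kept.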

Row | Variant | polymerase ribozyme fitness (log ratio)
1 | C8U G69A | -1.72
2 | U59A U87A G113U A118G | -4.7
3 | C3U C12G G71U | -0.231
4 | C11G C56G | 0.087
5 | G52A G120A | 0.47
6 | A75G C85U U130C | -0.982
7 | G120A U130A | 0.684
8 | C22G A41U G63U U78C C99G | -6.66
9 | A5U A121U | 1.1
10 | C73U C102U U131C | -1.19
11 | G71C A121U | 0.296
12 | C13A C40U C88U C101A U112A | -2.49
13 | C13U A37U G42U G63U C85U U112A | -3.9
14 | C13G C53G G93C C101A | -3.63
15 | C70A C104A U109A G128C | -7.62
16 | C70U C97A | -4.6
17 | C73G U92A | -5.66
18 | C4U G42A G45U G47A | -4.19
19 | G36A G42A A74G G127C | -3.95
20 | G42C G71U G77C A100U | -3.33
21 | C56U C98A G120U | -4.12
22 | G51U G77C | -1.93
23 | C20U A43G C53A G110U G120U | -6.4
24 | G36U C53U G63A C123G | -0.478

Row | Variant | polymerase ribozyme fitness (log ratio)
25 | U9G U14A G77U U92G C124U | -3.63
26 | C13U A18U A118G | -1.84
27 | C8U C12G G69C | -1.06
28 | U7A G39A G52A | 0.0728
29 | C101A C104A A121C | -0.368
30 | C20U C114U | -1.66
31 | U130A G135U | -0.655
32 | G19C U130C | -2
33 | G10U C73U U92A C101U C104U | -3.23
34 | G110U G120U | -2.75
35 | G120A C123A | -0.268
36 | G63U A90U G113C | -3.41
37 | U7A C13U A41U C82A G127A | -2.71
38 | C13A G71A A90G | -2.51
39 | C4G C56G C64U | -3.26
40 | G10C A18U G93A U130C | -3.83
41 | G17C C85G C86U A91U U112G | -6.74
42 | C28U C82A C114U | -3.98
43 | C15U G60A | -0.966
44 | C72A G110A U131A | -0.37
45 | C70A U87C C102A | -3.97
46 | A18C C72G | -3.9
47 | C85G A108G | -3.15
48 | C11U U78C U106G | -2.03

Row | Variant | polymerase ribozyme fitness (log ratio)
49 | C12U C124A | 1.8
50 | C12G G110U U130A | -1.34
51 | U32C C49U C53U A75G A83C C99U | -5.45
52 | C4A C13U A26U G44U C49A C104U | -6.34
53 | A5G A118U C123G | 2.09
54 | C20A C28G C94U A111G | -7.69
55 | U7G G10A G39U G69C C101G G110C | -7.07
56 | U78G C97U U116C A121U U131A | 0.0734
57 | U7C C49U A50C G60U G127A | -0.326
58 | A41G G61U U96A A105U U133C | -6.14
59 | G128C U131A | -1.91
60 | G60A G61U U96G | -2.55
61 | C8A A50U G52A | -2.23
62 | A37C G45A G113U | -4.52
63 | G69C A91G | -1.94
64 | C49A C72U C97G G128C | -6.74
65 | C28U C72U | -2.26
66 | A18U G60U U130C | -1.84
67 | A68G C101G | -3.93
68 | G44U C124A | 1.15
69 | C62U G113C C124A U133A | -2.07
70 | G61C C70U C114U G127U | -4.4
71 | G47A C70A G77A C79U C86G | -5.44
72 | C86A C104A C124G G128U U133A | -1.59

Row | Variant | polymerase ribozyme fitness (log ratio)
73 | U54A C62U C72G | -1.24
74 | C28A C56U | -2.94
75 | C34U U78A | -4.78
76 | C56G G93A A95G G113A G120C | -3.38
77 | C40A G71U | -1.52
78 | C8A C115G | -0.0701
79 | C79U C89A C115A | -0.609
80 | C8G C82A G117U | 0.587
81 | C49G C101A C124U | 0.417
82 | A46U A90U A105U C115U C124U | -5.04
83 | U38G G52U G135C | -3.58
84 | C56A C123G | 1.24
85 | C72G G120C G128C | -3.07
86 | A6C U30C G69A | -5.82
87 | G69C G113A | -1.72
88 | C88A C104A A121U U130C | 0.158
89 | A50U C56U A83C | -1.21
90 | G93A U132A G135U | -0.722
91 | G47C C62U C88U | -1.75
92 | A27G G61A U81C A84C C104U G110U U131C | -2.62
93 | C12U A16U C22G U38G G52C A111U | -3.72
94 | C11G C20U A26C A27G G44U C114U | -6.01
95 | C34A U55C G60A U129G | -4.44
96 | C8A A27G C56U C62U | -1.49

Row | Variant | polymerase ribozyme fitness (log ratio)
97 | C12G G44A C73G C82U | -0.977
98 | C97U C114G | -3.36
99 | A5G G44C A74U U96G | -2.57
100 | C13U G35C G48C C73A A74G C104U | -4.6
101 | C11U G44A C79U A119U | -1.69
102 | G42A G47A U112A | -1.49
103 | U96A U133G | -0.674
104 | C12U G44U A46U C85A | -4.14
105 | A18U U59A A68G A91U G120U | -6.77
106 | C86G A108G U130A | -3.28
107 | C70U U131G U133A | -0.369
108 | A84G G127C | -2
109 | G52U A121C | 1.02
110 | U9C C11U C101A | -0.843
111 | G39C C70U C101A | -2.67
112 | G47A C79U A100U A111U G120A U125G U131A U132C | -6.42
113 | G10U C72A | -0.423
114 | A5C G17A C82A | -5.14
115 | A66U A105U | -4.44
116 | G69C C124U | 0.177
117 | G60C G128C | -2.73
118 | G19U C86G | -3.71
119 | C13U C101A | -0.869
120 | G69U U130G | 0.642

Row | Variant | polymerase ribozyme fitness (log ratio)
121 | C12G C15G G47C C82G | -4.81
122 | U7C C8U C20A G71A G93U | -5.59
123 | A16G G35U C49G C115A A119G A121U | -4.09
124 | G117U C124A | -0.212
125 | A6U U78G A83C | -0.41
126 | A18G C53A A100C A103G C114A | -5.14
127 | U30A U129G | -4.77
128 | C40U A43U G57U G63C | -3.07
129 | G71C A103U C115A G117A | -5.57
130 | C15U C115U | -1.42
131 | A5G C12G G42U | -0.303
132 | U14G G117A | -2.92
133 | C13U A18G G23A A46U A111G | -7.19
134 | U78C U81A U87G C123G | 1.68
135 | A6U G10C C12U C49A G69C A90C A91U | -2.98
136 | U7A U21A G61C C114G | -5.5
137 | A95G | 0.119
138 | G36U C53A C89G | -2.84
139 | G45U C70U A119U G127A | -3.74
140 | G19A C56U | -2.34
141 | U7C G42U G60C G120A C124G G128A | -3.07
142 | C12U A46C A75U | -0.187
143 | A46U G63U U78A A90U | -3.56
144 | C8G A41G C53G G93U | -0.406

Row | Variant | polymerase ribozyme fitness (log ratio)
145 | A16G C28U U54G A121G | -0.979
146 | C97G C123A | -4.41
147 | U9A G60A C70A C98U C101G C123G | -6.71
148 | U59G C102A | -1.41
149 | C53G U78C C82U G120A | 0.0778
150 | U38A C114A A121U | -1.59
151 | U96A C104U C124U | 0.864
152 | U21G U54C C56A G57C | -1.15
153 | C3A G61A | -1.23
154 | C73U U96A A108G C114A | -5.25
155 | A2G C12U G17C U78C C86G | -4.66
156 | G47C G77U U116G | -3.46
157 | C4G G10A | -1.4
158 | A26U G44C G48C C101A A111G U112A C124A | -8.24
159 | G39U U106C U129C | -1.88
160 | C20G A46U | -4.99
161 | U32G C97G A119G | -6.08
162 | G17A A18C C62G G120C | -4.41
163 | C12A C22U U78C A121U | -2.5
164 | A46U C79A C115G | -5.77
165 | C20G C62U C98U A111U G120C | -4.17
166 | A6C G52A C79U U87A | -0.58
167 | C20A A50G G52A C124A | -1.12
